Assay in all cases: purified protein, by the assay type;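 further: recombinant polyamine oxidases incubated with substrate, product amines (putrescine, 1,3-diaminopropane or butane-1,3-diamine) quantified by HPLC after post-column o-phthalaldehyde derivatization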
Substrate in data set [1]: CC(=O)N[C@H](C)CCNCCCCN
The note with it: other: Supplementary Table 1, pH 9.0, 100 mM Glycine-NaOH, 25°C, Put formation.
Description: (§1) HPLC with post-column o-phthalaldehyde-derivatization was used to determine the concentrations of the reaction products Put and 1,3-diaminopropane (DAP) or butane-1,3-diamine respectively as described in [30]. Fms1 activity was determined essentially as described for human recombinant APAO, but reactions were carried out in 100 mM Glycine-NaOH buffer at pH 9.0 in a water bath at +25°C [29, 30].
(§2) The reactions were carried out in 1 triplicate at pH 9.0 in 100 mM Glycine-NaOH at +25°C.
(§3) values for N -Ac-MeSpd enantiomers were determined by using substrate concentrations of 25, 50,
(§4) for Rac-MeSpd 30 min, (R)-MeSpd 20 min and (S)-MeSpd 40 minutes.
(§5) The reactions were carried out in triplicate at pH 9.0 in 100 mM Glycine-NaOH at +25°C.
(§6) values for MeSpd enantiomers were determined by using substrate concentrations of 100, 300, 600,
(§7) 1000, 2000 and 4000 M. Recombinant Fms1 was 3.8 g/reaction and the incubation time 60
(§8) incubated for 30 min (half of the reaction time of an ordinary sample). E1 cleavage was monitored
(§9) by HPLC by measuring Put formation and E2 cleavage by determining butane-1,3-diamine content.

Substrate in data set [2]: CC(=O)NCCCNCCCCN
As to conditions: other: substrate alone, no aldehyde, pH 9.0, 25°C.
Description: as §1, §2, §3, §4, §5, §6, §7, §8, §9

Substrate in data set [3]: CC(=O)NCCCCNCCCN
As to conditions: other: substrate alone, no aldehyde, pH 9.0, 25°C.
Description: as §1, §2, §3, §4, §5, §6, §7, §8, §9

Substrate in data set [4]: CC(=O)N[C@@H](C)CCNCCCCN
As to conditions: other: Supplementary Table 1, pH 9.0, 100 mM Glycine-NaOH, 25°C, Put formation.
Description: as §1, §2, §3, §4, §5, §6, §7, §8, §9

Substrate in data set [5]: NCCCCNCCCN
As to conditions: other: substrate alone, no aldehyde, pH 9.0, 25°C.
Description: as §1, §2, §3, §4, §5, §6, §7, §8, §9

Substrate in data set [6]: CC(=O)NC(C)CCNCCCCN
The note with it: other: Supplementary Table 1, pH 9.0, 100 mM Glycine-NaOH, 25°C, Put formation.
Description: as §1, §2, §3, §4, §5, §6, §7, §8, §9

Substrate in data set [7]: CC(N)CCNCCCCN
Description: as §1, §2, §3, §4, §5, §6, §7, §8, §9
As to conditions: other: Supplementary Table 2, pH 9.0, 25°C.

Our source for the Km, kcat and kcat/Km values is PMC6131205, “Controlling the regioselectivity and stereospecificity of FAD-dependent polyamine oxidases with the use of amine-attached guide molecules as conformational modulators” (Bioscience Reports, 2018).

Where “and” joins values, the source holds several entries; their conditions need not be identical. Equal entries are not always repeated.

B1: Fms1 (Saccharomyces cerevisiae S288C) (protein)
chain: MNTVSPAKKKVIIIGAGIAGLKAASTLHQNGIQDCLVLEARDRVGGRLQTVTGYQGRKYDIGASWHHDTLTNPLFLEEAQLSLNDGRTRFVFDDDNFIYIDEERGRVDHDKELLLEIVDNEMSKFAELEFHQHLGVSDCSFFQLVMKYLLQRRQFLTNDQIRYLPQLCRYLELWHGLDWKLLSAKDTYFGHQGRNAFALNYDSVVQRIAQSFPQNWLKLSCEVKSITREPSKNVTVNCEDGTVYNADYVIITVPQSVLNLSVQPEKNLRGRIEFQPPLKPVIQDAFDKIHFGALGKVIFEFEECCWSNESSKIVTLANSTNEFVEIVRNAENLDELDSMLEREDSQKHTSVTCWSQPLFFVNLSKSTGVASFMMLMQAPLTNHIESIREDKERLFSFFQPVLNKIMKCLDSEDVIDGMRPIENIANANKPVLRNIIVSNWTRDPYSRGAYSACFPGDDPVDMVVAMSNGQDSRIRFAGEHTIMDGAGCAYGAWESGRREATRISDLLK
With B1, the Km (in general, the concentration of substrate that gives half-maximal velocity) in data set [1] is 155 ± 29 µM; in data set [2], 42 ± 8 µM; in data set [3], 122 ± 18 µM; in data set [4], 109 ± 18 µM; in data set [5] it was 534 ± 36 µM and 643 ± 52 µM; in data set [6] it was 140 ± 23 µM. In addition, the Km in data set [7] (Put formation) is 502 µM and 555 µM; in data set [7] (butane-1,3-diamine formation), 467 µM and 606 µM. The kcat (commonly the maximal rate divided by the concentration of active sites) in data set [2] is 65 ± 2 s⁻¹; in data set [3] it was 1.4 ± 0.1 s⁻¹; in data set [7] (Put formation) it was 0.014 ± 0 s⁻¹ and 0.011 ± 0 s⁻¹; in data set [7] (butane-1,3-diamine formation), 0.006 ± 0 s⁻¹ and 0.013 ± 0 s⁻¹. In addition, the catalytic efficiency (kcat/Km) (as a rule, the second-order rate constant that governs catalysis at low substrate concentration) was “(1600 ± 300) × 10^3 M^−1s^−1” in data set [2]; “(12 ± 1.8) × 10^3 M^−1s^−1” in data set [3]; 28 M⁻¹ s⁻¹ and 20 M⁻¹ s⁻¹ in data set [7] (Put formation); 13 M⁻¹ s⁻¹ and 22 M⁻¹ s⁻¹ in data set [7] (butane-1,3-diamine formation).
